Measurements as given in publication PMC8458453.

Target: human Rab7 Q67L (residues 2–195), GTP-loaded (human) (UniProt P51149)
Assay: crystal structure; purified PDZD8 CC and Rab7 Q67L (1 mM GTP) mixed 1:1 at total 10 mg/ml, incubated 1 h at room temperature; crystals in 0.1 M Tris-HCl pH 8.0, 25% PEG 1000, 0.1 M NaCl; space group P6(5), 2.1 Å

Sequence of human PDZD8 C-terminal coiled-coil (CC) domain, residues 994–1123 (crystallisation construct) (Q8NEN9 994-1123): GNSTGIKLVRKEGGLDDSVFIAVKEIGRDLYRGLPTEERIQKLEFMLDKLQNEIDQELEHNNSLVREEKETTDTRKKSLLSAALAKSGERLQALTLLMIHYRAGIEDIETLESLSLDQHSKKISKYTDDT
Sequence of human Rab7 Q67L (residues 2–195), GTP-loaded (human) (P51149 2-195 Q67L): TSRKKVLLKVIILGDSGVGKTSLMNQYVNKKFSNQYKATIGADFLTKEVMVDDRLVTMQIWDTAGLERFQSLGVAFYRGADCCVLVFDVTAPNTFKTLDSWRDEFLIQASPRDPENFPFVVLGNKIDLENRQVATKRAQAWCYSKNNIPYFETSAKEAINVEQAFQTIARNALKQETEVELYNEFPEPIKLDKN

Which stoichiometry N (Rab7 per PDZD8 CC) does the source give for “human PDZD8 C-terminal coiled-coil (CC) domain, residues 994–1123 (crystallisation construct) (from UniProt Q8NEN9 994-1123) (domain or fragment)” here?
Its stoichiometry N (Rab7 per PDZD8 CC) is 2.
